# From patent publication US20030124585A1, “Type II gonadotropin-releasing hormone receptor and polynucleotides encoding therefor” (Medical Research Council, priority 2000, published 2003)
# Like-named read-outs stand apart in the source and are kept apart here. Square brackets hold non-standard residues; d marks the D form. Ends that are not written are not given here.
# T1: Marmoset Type II GnRH receptor (marmoset)
# T1 chain: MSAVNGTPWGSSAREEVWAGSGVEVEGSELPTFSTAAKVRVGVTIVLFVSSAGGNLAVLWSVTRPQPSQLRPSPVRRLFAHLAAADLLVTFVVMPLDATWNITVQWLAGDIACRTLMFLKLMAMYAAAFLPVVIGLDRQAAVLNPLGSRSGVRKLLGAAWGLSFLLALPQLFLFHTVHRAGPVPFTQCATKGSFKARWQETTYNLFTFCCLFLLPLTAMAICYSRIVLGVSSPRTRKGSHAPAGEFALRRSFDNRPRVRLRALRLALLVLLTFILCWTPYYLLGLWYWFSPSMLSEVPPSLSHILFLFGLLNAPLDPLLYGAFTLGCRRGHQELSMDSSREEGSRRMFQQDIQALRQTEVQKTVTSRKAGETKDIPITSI
# T2: Marmoset Type II GnRH receptor (marmoset)
# T2 chain: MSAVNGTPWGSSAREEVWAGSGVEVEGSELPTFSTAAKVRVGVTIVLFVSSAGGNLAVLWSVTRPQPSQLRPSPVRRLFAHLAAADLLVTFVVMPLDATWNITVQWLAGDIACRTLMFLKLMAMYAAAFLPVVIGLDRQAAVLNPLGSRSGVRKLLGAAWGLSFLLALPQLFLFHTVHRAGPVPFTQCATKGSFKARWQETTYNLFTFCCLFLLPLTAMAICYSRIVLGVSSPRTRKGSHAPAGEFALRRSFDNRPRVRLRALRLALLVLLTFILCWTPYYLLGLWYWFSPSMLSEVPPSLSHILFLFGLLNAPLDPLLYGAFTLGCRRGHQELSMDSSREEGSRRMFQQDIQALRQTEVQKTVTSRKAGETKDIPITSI
# T3: human Type I GnRH receptor (human, UniProt P30968 1-328)
# T3 construct: whole, on cells; Transiently expressed in COS-7 cells; also called Type I receptor
# T3 sequence (looked up): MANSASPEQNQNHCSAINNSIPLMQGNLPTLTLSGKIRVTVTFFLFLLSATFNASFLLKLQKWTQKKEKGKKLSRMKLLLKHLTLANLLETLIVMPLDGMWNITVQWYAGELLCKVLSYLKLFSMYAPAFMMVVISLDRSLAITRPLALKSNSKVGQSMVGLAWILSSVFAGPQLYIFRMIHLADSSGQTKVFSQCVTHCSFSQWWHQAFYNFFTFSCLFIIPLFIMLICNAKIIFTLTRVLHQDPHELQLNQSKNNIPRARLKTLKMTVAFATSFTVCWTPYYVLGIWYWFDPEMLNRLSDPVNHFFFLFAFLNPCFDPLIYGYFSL
# T4: human Type I GnRH receptor (human), P30968
# T4 chain: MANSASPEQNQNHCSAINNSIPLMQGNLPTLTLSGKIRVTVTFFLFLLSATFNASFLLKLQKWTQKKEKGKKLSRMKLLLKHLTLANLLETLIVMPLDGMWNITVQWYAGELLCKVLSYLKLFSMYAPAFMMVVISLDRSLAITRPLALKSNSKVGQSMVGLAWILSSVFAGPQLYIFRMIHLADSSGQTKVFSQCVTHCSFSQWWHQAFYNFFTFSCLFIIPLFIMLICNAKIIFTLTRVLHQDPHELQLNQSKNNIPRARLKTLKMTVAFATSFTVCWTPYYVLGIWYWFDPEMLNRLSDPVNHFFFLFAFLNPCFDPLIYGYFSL
# How the values were obtained:
# [1] = target: T1, Marmoset Type II GnRH receptor …; experiment: cell-based or functional assay
# [2] = target: T1, Marmoset Type II GnRH receptor …; experiment: competition with ^125I-[His^5,D-Tyr^6]GnRH on COS-7 cells expressing marmoset Type II GnRH-R (FIG. 4, n=2)
# [3] = target: T1, Marmoset Type II GnRH receptor …; experiment: competition with ^125I-[His^5-D-Tyr^6]GnRH I on COS-7 cells expressing the receptor (n = 3-6)
# [4] = target: T2, Marmoset Type II GnRH receptor; experiment: cell-based or functional assay
# [5] = target: T3, human Type I GnRH receptor; experiment: competition with ^125I-[His^5-D-Tyr^6]GnRH I on COS-7 cells expressing the receptor (n = 3-6)
# [6] = target: T2, Marmoset Type II GnRH receptor; experiment: as above
# [7] = target: T3, human Type I GnRH receptor; experiment: cell-based or functional assay
# [8] = target: T2, Marmoset Type II GnRH receptor; experiment: cell-based or functional assay
# [9] = target: T2, Marmoset Type II GnRH receptor; experiment: competition with ^125I-[His^5,D-Tyr^6]GnRH on COS-7 cells expressing marmoset Type II GnRH-R (FIG. 4, n=2)
# [10] = target: T2, Marmoset Type II GnRH receptor; experiment: receptor binding assay on COS-7 cells; reference mammalian GnRH I
# [11] = target: T2, Marmoset Type II GnRH receptor; experiment: receptor binding assay on COS-7 cells; reference human Type I GnRH receptor
# [12] = target: T4, human Type I GnRH receptor (human), …; experiment: cell-based or functional assay
# [13] = target: T4, human Type I GnRH receptor (human), …; experiment: competition with ^125I-[His^5-D-Tyr^6]GnRH I on COS-7 cells expressing the receptor (n = 3-6)
InsP production (EC50) [1],total inositol phosphate production (EC50) [1],IC50 [2],IC50 [3],"stimulation of inositol phosphate production, fold greater activity relative to mammalian GnRH I [4]",total inositol phosphate production (EC50) [4],IC50 [5],IC50 [6],InsP production (EC50) [7],InsP production (EC50) [8],IC50 [9],fold greater activity relative to mammalian GnRH I [10],fold greater affinity than for the Type I receptor [11],InsP production (EC50) [12],IC50 [13],Binder
40.5 nM,33.2 nM,51.7 nM,42.6 nM,,,,,,,,,,,,"QHWSYGLRPG (peptide, UniProt P01148 24-33, looked up, modifications not checked) [Mammalian GnRH I, P01148 24-33]"
,,,,90 fold,0.46 nM,26.1 nM,1.07 nM,7.41 nM,0.45 nM,1.3 nM,40 fold,24 fold,,,"QHWSHGWYPG (peptide, UniProt O43555 24-33, looked up, ends and bridges not checked, mature; also called GnRH Type II; Type II GnRH) [GnRH II]"
5.99 nM,8.7 nM,9.8 nM,9.48 nM,,,,,,,,,,9.62 nM,244 nM,"QHWSYGWLPG (peptide, UniProt P01148 24-33, looked up, modifications not checked) [salmon GnRH, P01148 24-33]"
,,,,,1.1 nM,,3.34 nM,3.8 nM,2.39 nM,,,,,,"QHWSH[dR]WYPG (peptide, UniProt O43555 24-33, looked up, ends and bridges not checked, mature; Synthetic analogue of GnRH II; also called [D-Arg^6]GnRH Type II) [[D-Arg^6]GnRH II]"
